Data reported in the DeepSol protein solubility set.

experiment: soluble on expression in E. coli; label from the status in PepcDB or PDB records

Sequence	soluble on expression in E. coli
HMSVILDTKGEPVSNAADAYYLVPVSHGEGGLALAKVGNEAEPKAVVLDPHHRPGLTVRFETPLAIAIITESFFLNIKFVPSSSDSEVWDVSKQYPIGLAVKVTDTKSFVGPFRVEKEGEGYKIVYYPDRGQTGLDIGLVHRNDKYYLAATEGEPFVFKIRKATYE	soluble
MGSDKIHHHHHHMIILDNHFHVDPINGLFLEAVKQFHRAGGTHLVVVYKSAHDYGFGGMKGEDFMRAMDFHVELVEIINKETPVKAYAVVGVHPAEFDYLARARGIEYAKREVMKALEHAQRLCLDGKAIGIGEVGRPHYPVPEEIWEASIEIMKYAMALAKEADCAVQLHTESFDEEKFRELGRYVREVGIKPYRVVKHFSPPLVKVAEEVGIFPSIIASRKNIEEAIKQGTRFLMETDYIDDKRRPGAVLGPKTVPRRTKELLQKGILTEDDVYRIHVENPEKVYGIEL	not soluble
MDLIPARIGLIYNPLGGWFRKHTARMQSLLATLPEIRQIQATDQIEFERAVTVVVEAKIGWLIVVGGDGTLQGVMSCLFECLPPDRWPEITIVPAGTTNMTALDLGMNGQAEQILSRIRQHLQRPGDMKQVRRP	not soluble
MAKLTRLGDLERAVMDHLWSRTEPQTVRQVHEALSARRDLAYTTVMTVLQRLAKKNLVLQIRDDRAHRYAPVHGRDELVAGLMVDALAQAEDSGSRQAALVHFVERVGADEADALRRALAELEAGHGNRPPAGAATET	soluble
SASSEVARHLLFQSHMATKTTCMSSQGSDDEQIKRENIRSLTMSGHVGFESLPDQLVNRSIQQGFCFNILCVGETGIGKSTLIDTLFNTNFEDYESSHFCPNVKLKAQTYELQESNVQLKLTIVNTVGFGDQINKEESYQPIVDYIDAQFEAYLQEELKIKRSLFTYHDSRIHVCLYFISPTGHSLKTLDLLTMKNLDSKVNIIPVIAKADTVSKTELQKFKIKLMSELVSNGVQIYQFPTDDDTIAKVNAAMNGQLPFAVVGSMDEVKVGNKMVKARQYPWGVVQVENENHCDFVKLREMLICTNMEDLREQTHTRHYELYRRCKLEEMGFTDVGPENKPVSVQETYEAKRHEFHGERQRKEEEMKQMFVQRVKEKEAILKEAERELQAKFEHLKRLHQEERMKLEEKRRLLEEEIIAFSKKKATSEIFHSQSFLATGSNLRKDKDRKNSNFL	not soluble
MLRRYSHFYSIRYSSTLLSTLDGLTNRTSGDKLLTYSEKFSKLYANSTPETRKSIFVDLVTNYGVNKEALNHAISLYSKNDQMYPEVRTSATASYVNLIKSIGNLPGGVMQVCEMRANILALLKRETDKTTTSYLRHIELATREVLTSWFSLGNLKLERLTWSSPGDILQKVAEYEAVHPVRGLSDFRKRLGPLRRCFYFSHEALPRNPLVMVHVALVDEIADSVQEITKRGAPTGKEEDQTTAIYYSITSTQPGLSGIDLGNMLIKKVATKLQKDVPSVTTHSTLSPIPGFRPWLIRNLKGNSEYPSIMNEKVVNWISDISEREMNEVEATETLLKVISNEKTKKEQLNAIQHILMYACAHYLCNAKRNGMALNSVANFHIRNGAELYRLNWNGDTSHRGINNSFGIMVNYRYDLEKVHENSAAYTEHKKMAINQKVLDIF	not soluble
MSLKHLIKNYVQKLIKTELDAIQSKSVHDNRNFIYNGEFLILESEFGLHCFPRVQLNHALSYKNPNFDLGMRHWIVNHCKHDTTYIDIGANVGTFCGIAARHITQGKIIAIEPLTEMENSIRMNVQLNNPLVEFHHFGCAIGENEGENIFEVYEFDNRVSSLYFQKNTDIADKVKNSQVLVRKLSSLDISPTNSVVIKIDAEGAEIEILNQIYEFTEKHNGIEYYICFEFAMGHIQRSNRTFDEIFNIINSKFGSKAYFIHPLSSAEHPEFNKATQDINGNICFKYVSEGHHHHHH	soluble
MGSDKIHHHHHHLVPPDYQDPPSDFTAEVEAGLQLNTGNNESKNFNSRAYLTYDTPKTRQEGTFKVYYAADGTETTSEKYDLFLQSSYKLNRGYVFGRGEFTWDDFGSFTEIRTLSTGYGFDLIKSYKTKLSLEAGPGYRYDMPRATLSDPEPRANREVILRTAARYSVKLQEYTSLNADVTAETGLDNNTLTLDMSYKNTFLQDWAFKIGMNVRYTQDVPQDSQRTDTTTTFNLLYTFQ	not soluble
AHHHHHHGSDLERALNAFHSMKVNQLTPPCSQMPIVEEDSPIIDVLKLLRTRHHVWVVNNRKDMKLVGIIRYLDIIDIFLPPKGARLGAVSSVFKSILSGAEKAGDIMERNFLTINEDATVLEALEKMKRYKIQILALIDEEGKLKGEISLRILINEFLRLIRVGGG	soluble
MSLDIAYFTKTLEGLPLEKAAEITAGLGFDCADLLIRDGHAVSPDRPEGIANAVKFFAAAGVRTSMATIDSARPDDAASRLLSCCGEAGIGQIRLGFWRYDPSRRWRVQVDEARRDLDGFERLADRFGIKLTIQLHGGTLHSSGALAVQLLAGRDPIRLGAYPDPANQIIREGSEDWRLTLDILDPWFCCMGVKNSGWFPGAYGSHGQRAWHSDWYGLDEGMVPWNEIVPHLVATGFTGVLSMHSQYRVSREQALDKVRADLAHFRRLVAAAKEGHHHHHH	not soluble
MGSDKIHHHHHHMIEITHGDILRADTEAIVNTVNCVGVMGRGIALQFKKAWPDNFKAYAAACNSKNVQPGKMFIFETGQLANPRFIINFPTKRHWKGASRIEDIESGLVALVADIQRLGIKSIAIPPLGAGLGGLDWLVVRDKIEAAMQPLTDVQILLYEPAGAPQNDRIAKQKEVPKMTAGRAVLIELMQRYLKGLLDPTVSLLEVHKLLYFMQEAGEPLRLKYEKAHYGPYAQNLRHVLNAIEGHFISGYADGGDKPEKELRLVPGAVKEAQEFLEQHPDTRERFTKVSELVEGFESPLGLELLATVHWLNKYEHVRSTDQVIESVHSWNTRKQLFTARQITIAEKVLARQNWLSA	not soluble
AHHHHHHGSVRDMEFGNLKPGVENSVCLSAEDLLNTVLSVINSTKARGAYVKIFGKDMEDNYLLEMLVDGSRILAIECSYVQAKKKVVGEEAIKKLAELVELPLIVSVYPLDDNQFRLILANNLEVYSQTPAVPLSSVFKKGATRTIESAIEEAKEEKEEEIQKIMKKTEEIVTEEKKKKEEKKRSSNRNTKRKQN	soluble
MGSDKIHHHHHHMIELIATAESVEQAVELLATGVDTLYIGEETFGLRLPVSFTRDEQREIVKRAHEMGKQVLVAVNGIMHPEKMKLVPEYLTFLKEINVDKITLGDPGIVFIMQRDGLEIPYVYDGETLVTSSRQINFWSKRGAIGAVLAREVPFEEMVAMEENLAVPAEILVYGATCIHQSKRPLIQNYYNYTKNDKGVTKDEGLFISEPKKPETHYSIYEDSHGTHIFANNDVNLMNELTNLYDHHYRTWKLDGLYTPGENFVAIARLFAEAKAALEAGTWSEDQAAHATAEIEKLHPTGRGLDNGFFDLSADAIK	not soluble
MSLMSKPQITIKDIARELGVSPSTVSRALKDNPDISQETRDAIHKYAREHNYKPNVLALNLRTSRSNTIGVIIPQLVHHFFSCVLSGIERTAAEAGYNILVAQSNEEYEREVKIVHSFLAARVCGVITSLAKDTSRYDHYQELLDNNIPIVFYDRICTGINTERVVVDDYAGSFAAVEYMIQTGCKRIFFYSAAPHLEISKNRRNGYMDAMKKYRIPVDQSMIKLCDSREKAIAITPALLERPDHPDGFFAINDETASGILYSCKLTGRKVPDEVSICGFTDGAIAQSTDPKLTTVEQHGEEVGKSTIRLLIDKLEGNDEGKSGNKIVRTNLVVRGTTKEGHHHHHH	soluble
MHHHHHHSSGVDLGTENLYFQSNAMKEELIERFTRYVKIDTQSNEDSHTVPTTPGQIEFGKLLVEELKEVGLTEVTMDDNGYVMATLPANTDKDVPVIGFLAHLDTATDFTGKNVKPQIHENFDGNAITLNEELNIVLTPEQFPELPSYKGHTIITTDGTTLLGADDKAGLTEIMVAMNYLIHNPQIKHGKIRVAFTPDEEIGRGPAHFDVEAFGASFAYMMDGGPLGGLEYESFNAAGAKLTFNGTNTHPGTAKNKMRNATKLAMEFNGHLPVEEAPEYTEGYEGFYHLLSLNGDVEQSKAYYIIRDFDRKNFEARKNTIENIVKQMQEKYGQDAVVLEMNDQYYNMLEKIEPVREIVDIAYEAMKSLNIEPNIHPIRGGTDGSQLSYMGLPTPNIFTGGENYHGKFEYVSVDVMEKAVQVIIEIARRFEEQA	soluble
MMLSATQPLSEKLPAHGCRHVAIIMDGNGRWAKKQGKIRAFGHKAGAKSVRRAVSFAANNGIEALTLYAFSSENWNRPAQEVSALMELFVWALDSEVKSLHRHNVRLRIIGDTSRFNSRLQERIRKSEALTAGNTGLTLNIAANYGGRWDIVQGVRQLAEKVQQGNLQPDQIDEEMLNQHVCMHELAPVDLVIRTGGEHRISNFLLWQIAYAELYFTDVLWPDFDEQDFEGALNAFANRERRFGGTEPGDETA	soluble
MGSDKIHHHHHHMKDSALRVGIYQGPEIPQSFKVYAENVWRHLPKQDIATIPFKDRKDLPKSADVLWDIRSGGGNPPPDFLLEHPLPPLVVTVHGFAPLSLNGWEYFRTLKGLIMSGQYAKHKRERWREVRTAVGSIIAVSAFVKDEAIRFTGVPADRIHVCHHGVDGNAFTPGPDTESEPYFFHVSNDEPRKNVGAIVRAFRQLRRHCRVQLVLKLPEESARNYEKIEGIRVLSGFLTTEELVHLYRHALAFIFPSLYEGFGLPILEAMACGCPVITSNVSACREIAGEAARTINPRNESELLEAMEILYRNPEERRARTAMGLRRALGFSWEESAKCHARVLYMTADRNAPVASPD	not soluble
MDKSLLLELPILLCCFRALSGSLSMRNDAVNEIVAVKNNFPVIEIVQCRMCHLQFPGEKCSRGRGICTATTEEACMVGRMFKRDGNPWLTFMGCLKNCADVKGIRWSVYLVNFRCCRSHDLCNEDL	not soluble
MIDIHNHILVDIDDGPKTIEKSIALLKQAKDEGVTSIVATPHHLHPRYDNTFQQVLVKLAELRTHPEVQALDIKLFPGQEIRITDSILKGLDNGSIQGINRSKYLLIEFPTGEVPHYTKQLFFEIQSRGYIPIIAHPERNRSIAKNPEILYELVANGALSQLTSSSLVGGFGKNIQKLSLQFIECNLAHFVASDAHSCDQRPFLMQELFHNHKLKKYSNDIEALLRNASSVINDNFVYLDRPTKPGKVKSFLKWF	not soluble
MSQLFVRTGITFDSSQQALAHIGKEMLAKGVVHDSYPQALVEREASFPTGIALERHAVAIPHCEAVHAKSPAIYLIRPDKPVMFQQADDDEEIAVSLIIALIVENPAAQLKLLRRLFSELQNPSTLDALLSAPDAELAIRFQETILEPEQCVQV	not soluble
MNAGSDPVVIVSAARTIIGSFNGALAAVPVQDLGSTVIKEVLKRATVAPEDVSEVIFGHVLAAGCGQNPVRQASVGAGIPYSVPAWSCQMICGSGLKAVCLAVQSIGIGDSSIVVAGGMENMSKAPHLAYLRTGVKIGEMPLTDSILCDGLTDAFHNCHMGITAENVAKKWQVSREDQDKVAVLSQNRTENAQKAGHFDKEIVPVLVSTRRGLIEVKTDEFPRHGSNIEAMSKLKPYFLTDGTGTVTPANASGINDGAAAVVLMKKSEADKRGLTPLARIVSWSQVGVEPSIMGIGPIPAIKQAVTKAGWSLEDVDIFEINEAFAAVSAAIVKELGLNPEKVNIEGGAIALGHPLGASGCRILVTLLHTLERMGRSRGVAALCIGGGMGIAMCVQRE	soluble
PRLLCTATKQKNSGQNLEEDMGQSEQKADPPATEKTLLEEKVKLEEQLKETVEKYKRALADTENLRQRSQKLVEEAKLYGIQAFCKDLLEVADVLEKATQCVPKEEIKDDNPHLKNLYEGLVMTEVQIQKVFTKHGLLKLNPVGAKFDPYEHEALFHTPVEGKEPGTVALVSKVGYKLHGRTLRPALVGVVKEA	not soluble
